{"source": "paper PMC11275212", "about": "“Eukaryotic Pif1 helicase unwinds G-quadruplex and dsDNA using a conserved wedge” (Nature Communications, 2024)", "key": {"[1]": {"molecular_target": "T1, ScPif1 (Saccharomyces cerevisiae Pif1, residues 236–753) (Saccharomyces cerevisiae, UniProt P07271)", "T1 construct": "helicase core domain, residues 236-753; N-terminal SUMO tag (pET28a) cleaved by Ulp protease; E. coli BL21; monomer on G4 DNA", "T1 sequence (P07271 236-753)": "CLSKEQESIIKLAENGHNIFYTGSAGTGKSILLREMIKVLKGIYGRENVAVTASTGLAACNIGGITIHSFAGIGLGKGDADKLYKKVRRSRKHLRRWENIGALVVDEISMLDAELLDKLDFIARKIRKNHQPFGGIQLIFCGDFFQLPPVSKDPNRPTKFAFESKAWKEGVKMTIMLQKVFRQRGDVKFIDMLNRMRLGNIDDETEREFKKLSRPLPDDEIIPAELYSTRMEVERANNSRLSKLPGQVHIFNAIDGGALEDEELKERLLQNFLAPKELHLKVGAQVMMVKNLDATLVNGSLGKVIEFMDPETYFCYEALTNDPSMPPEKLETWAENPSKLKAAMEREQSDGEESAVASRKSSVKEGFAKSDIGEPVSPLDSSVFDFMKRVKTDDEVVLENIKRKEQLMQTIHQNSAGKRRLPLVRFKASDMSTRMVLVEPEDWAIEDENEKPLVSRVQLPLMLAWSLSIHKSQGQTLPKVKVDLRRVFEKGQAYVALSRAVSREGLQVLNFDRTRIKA", "assay": "ATP hydrolysis assay", "format": "biochemical", "settings": "ATPase rate only in supplement"}, "[2]": {"molecular_target": "T2, ScPif1 (Saccharomyces cerevisiae, UniProt P07271 236-753)", "T2 sequence": "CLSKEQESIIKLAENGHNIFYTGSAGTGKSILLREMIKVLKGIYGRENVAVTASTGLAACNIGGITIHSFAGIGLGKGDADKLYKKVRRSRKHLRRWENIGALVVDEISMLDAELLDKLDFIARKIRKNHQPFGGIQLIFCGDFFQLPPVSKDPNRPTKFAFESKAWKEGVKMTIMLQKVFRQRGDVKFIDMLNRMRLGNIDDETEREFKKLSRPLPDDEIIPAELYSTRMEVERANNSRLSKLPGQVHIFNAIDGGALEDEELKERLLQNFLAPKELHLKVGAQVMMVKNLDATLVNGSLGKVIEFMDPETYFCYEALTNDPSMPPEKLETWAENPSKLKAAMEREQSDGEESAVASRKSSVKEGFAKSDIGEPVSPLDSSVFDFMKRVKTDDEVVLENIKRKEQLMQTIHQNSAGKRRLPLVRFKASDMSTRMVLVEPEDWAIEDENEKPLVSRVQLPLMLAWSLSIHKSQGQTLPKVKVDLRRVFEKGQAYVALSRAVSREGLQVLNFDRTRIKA", "assay": "fluorescence anisotropy; no nucleotide; Fluorescence anisotropy: 20 mM HEPES-NaOH pH 7.5, 100 mM NaCl, 10% glycerol, 20 C, 10 nM FAM-DNA, 30 min, quadratic fit", "settings": "protein: recombinant, tags: N-terminal SUMO tag (Ni-NTA purified), cleaved by Ulp protease, label: 3' 6-FAM"}, "[3]": {"molecular_target": "T3, ScPif1 R324Y (Saccharomyces cerevisiae, UniProt P07271 236-753, R324Y)", "T3 sequence": "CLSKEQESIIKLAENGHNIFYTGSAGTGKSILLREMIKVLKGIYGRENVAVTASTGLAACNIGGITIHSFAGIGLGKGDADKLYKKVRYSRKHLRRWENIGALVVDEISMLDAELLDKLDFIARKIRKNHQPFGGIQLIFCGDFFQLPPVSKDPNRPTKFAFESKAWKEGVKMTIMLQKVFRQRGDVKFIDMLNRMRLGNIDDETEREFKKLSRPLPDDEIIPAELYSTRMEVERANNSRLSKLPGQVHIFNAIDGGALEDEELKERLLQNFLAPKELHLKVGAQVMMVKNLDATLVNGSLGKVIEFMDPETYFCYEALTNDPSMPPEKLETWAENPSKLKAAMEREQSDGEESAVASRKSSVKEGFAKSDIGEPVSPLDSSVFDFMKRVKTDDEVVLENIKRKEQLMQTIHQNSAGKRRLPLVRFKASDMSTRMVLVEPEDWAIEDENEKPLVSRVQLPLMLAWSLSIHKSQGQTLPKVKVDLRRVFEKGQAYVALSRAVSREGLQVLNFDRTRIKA", "assay": "fluorescence anisotropy; no nucleotide; Fluorescence anisotropy: 20 mM HEPES-NaOH pH 7.5, 100 mM NaCl, 10% glycerol, 20 C, 10 nM FAM-DNA, 30 min, quadratic fit", "settings": "protein: recombinant; tags: N-terminal SUMO tag, cleaved; label: 3' 6-FAM; parallel intramolecular G4"}, "[4]": {"molecular_target": "T4, ScPif1 R324E (Saccharomyces cerevisiae, UniProt P07271 236-753, R324E)", "T4 sequence": "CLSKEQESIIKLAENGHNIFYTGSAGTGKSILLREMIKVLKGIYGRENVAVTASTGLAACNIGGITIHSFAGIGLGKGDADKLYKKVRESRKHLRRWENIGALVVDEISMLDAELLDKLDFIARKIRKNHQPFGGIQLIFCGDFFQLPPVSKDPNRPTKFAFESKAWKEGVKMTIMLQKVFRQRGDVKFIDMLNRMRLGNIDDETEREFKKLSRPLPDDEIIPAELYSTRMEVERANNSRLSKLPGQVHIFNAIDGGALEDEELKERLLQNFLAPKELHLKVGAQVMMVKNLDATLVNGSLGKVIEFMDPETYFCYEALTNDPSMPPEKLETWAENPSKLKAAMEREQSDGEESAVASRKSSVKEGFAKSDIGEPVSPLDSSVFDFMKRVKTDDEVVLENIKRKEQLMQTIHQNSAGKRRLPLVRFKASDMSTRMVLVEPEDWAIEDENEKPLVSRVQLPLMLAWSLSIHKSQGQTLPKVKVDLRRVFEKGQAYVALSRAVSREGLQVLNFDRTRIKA", "assay": "fluorescence anisotropy; no nucleotide; Fluorescence anisotropy: 20 mM HEPES-NaOH pH 7.5, 100 mM NaCl, 10% glycerol, 20 C, 10 nM FAM-DNA, 30 min, quadratic fit", "settings": "protein: recombinant; tags: N-terminal SUMO tag, cleaved; label: 3' 6-FAM; parallel intramolecular G4"}, "[5]": {"molecular_target": "T5, ScPif1 R324A (Saccharomyces cerevisiae, UniProt P07271 236-753, R324A)", "T5 sequence": "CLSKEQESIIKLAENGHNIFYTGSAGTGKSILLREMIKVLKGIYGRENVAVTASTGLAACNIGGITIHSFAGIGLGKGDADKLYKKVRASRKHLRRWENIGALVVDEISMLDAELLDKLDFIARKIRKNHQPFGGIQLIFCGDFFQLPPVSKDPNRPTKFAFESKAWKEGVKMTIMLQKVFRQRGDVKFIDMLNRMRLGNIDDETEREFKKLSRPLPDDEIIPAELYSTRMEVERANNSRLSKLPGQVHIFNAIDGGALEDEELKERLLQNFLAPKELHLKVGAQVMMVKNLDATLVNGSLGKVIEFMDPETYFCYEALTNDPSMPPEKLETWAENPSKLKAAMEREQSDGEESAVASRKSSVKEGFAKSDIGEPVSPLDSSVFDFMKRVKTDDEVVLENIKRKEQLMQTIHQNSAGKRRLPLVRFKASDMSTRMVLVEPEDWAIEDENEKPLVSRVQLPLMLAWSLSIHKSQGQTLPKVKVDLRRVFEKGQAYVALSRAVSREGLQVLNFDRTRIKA", "assay": "fluorescence anisotropy; no nucleotide; Fluorescence anisotropy: 20 mM HEPES-NaOH pH 7.5, 100 mM NaCl, 10% glycerol, 20 C, 10 nM FAM-DNA, 30 min, quadratic fit", "settings": "protein: recombinant; tags: N-terminal SUMO tag, cleaved; label: 3' 6-FAM; parallel intramolecular G4"}, "[6]": {"molecular_target": "T6, ScPif1 R324W (Saccharomyces cerevisiae, UniProt P07271 236-753, R324W)", "T6 sequence": "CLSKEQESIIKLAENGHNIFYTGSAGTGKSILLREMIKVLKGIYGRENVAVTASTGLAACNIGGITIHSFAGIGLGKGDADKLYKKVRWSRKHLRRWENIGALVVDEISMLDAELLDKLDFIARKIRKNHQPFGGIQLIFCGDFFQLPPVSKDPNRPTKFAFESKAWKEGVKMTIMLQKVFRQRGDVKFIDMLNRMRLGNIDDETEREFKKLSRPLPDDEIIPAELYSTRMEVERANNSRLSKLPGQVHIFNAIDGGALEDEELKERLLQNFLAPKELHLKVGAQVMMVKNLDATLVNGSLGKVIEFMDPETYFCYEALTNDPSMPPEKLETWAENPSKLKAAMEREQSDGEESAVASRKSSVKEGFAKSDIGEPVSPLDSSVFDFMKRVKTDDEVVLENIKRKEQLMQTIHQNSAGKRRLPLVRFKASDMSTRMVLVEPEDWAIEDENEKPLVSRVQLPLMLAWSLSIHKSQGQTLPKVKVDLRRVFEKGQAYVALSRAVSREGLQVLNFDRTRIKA", "assay": "fluorescence anisotropy; no nucleotide; Fluorescence anisotropy: 20 mM HEPES-NaOH pH 7.5, 100 mM NaCl, 10% glycerol, 20 C, 10 nM FAM-DNA, 30 min, quadratic fit", "settings": "protein: recombinant; tags: N-terminal SUMO tag, cleaved; label: 3' 6-FAM; parallel intramolecular G4"}}}
{"molecule": "Nc1ncnc2c1ncn2[C@@H]1O[C@H](COP(=O)(O)OP(=O)(O)OP(=O)(O)O)[C@@H](O)[C@H]1O", "note": "[ATP]", "values": [{"measurement": "ATP hydrolysis assay", "setting": "[1]", "result": "they hydrolyze ATP at a similar rate to WT ScPif1"}]}
{"molecule": "TTTTTTTTGGTGGTGGTTGTTGTGGTGGTGGTGGT (structured_DNA)", "note": "[T7-AT11-FAM]", "values": [{"measurement": "Kd", "setting": "[2]; parallel intramolecular G4 with 5' ssDNA tail", "result": 7.23, "unit": "nM"}]}
{"molecule": "TTTTTTT (ssDNA)", "note": "[T7-FAM]", "values": [{"measurement": "Kd", "setting": "[2]; single strand", "result": 12.8, "unit": "nM"}]}
{"molecule": "TGGTGGTGGTTGTTGTGGTGGTGGTGGT (structured_DNA)", "note": "[AT11-FAM]", "values": [{"measurement": "Kd", "setting": "[3]", "result": 10.9, "unit": "nM"}, {"measurement": "Kd", "setting": "[4]", "result": 25.6, "unit": "nM"}, {"measurement": "Kd", "setting": "[5]", "result": 11.8, "unit": "nM"}, {"measurement": "Kd", "setting": "[2]; parallel intramolecular G4", "result": 11.2, "unit": "nM"}, {"measurement": "Kd", "setting": "[6]", "result": 9.57, "unit": "nM"}]}
